{
  "source": "patent US9872921B2",
  "about": "“DE-N-acetyl sialic acid antigens, antibodies thereto, and methods of use in cancer therapy” (priority 2004, dated 2018)",
  "key": {"[1]": {"experiment": "HPTLC / Western blot reactivity with gangliosides extracted from SK-MEL-28 cells grown with N-trichloroacetyl mannosamine", "format": "binding, human", "conditions": "mAbs 5 μg/ml; lanes 2 and 5", "method": "SK-Mel-28 cells were grown on square 245 mm×245 mm bioassay dish (Corning) until near confluent. Growth medium (RPMI supplemented with 5 mM glutamine, 1 mM sodium pyruvate, 0.1 mM non-essential amino acids, 10% fetal bovine serum, and antibiotics) was replaced with growth medium containing trichloroacetyl mannosamine (5 mM) for 24 hours, after which cells were washed three times with PBS and lysed by hypotonic shock in distilled water (1 hour at 4° C.). This was followed by 3 cycles of freeze/thawing using ethanol on dry ice/37° C. water bath. The crude membrane fraction was pelleted by centrifugation at 4500 g for 20 minutes at 4° C. The pellet was lyophilized and the lipids extracted by stepwise washing with methanol/chloroform (1:2, 1:1, 2:1 by volume) for 30 minutes (Geilen et al 1992, Arch. Biochem. Biophys. 296, 108-114). The organic phase was dried under a steady stream of oxygen-free nitrogen gas and resuspended in 200 μl of chloroform/methanol/0.02% CaCl2 (50:40:10).\nLipids in the extract and in chemically de-N-acylated GD3 were analyzed by separation on high performance thin layer chromatography (HPTLC) and Western blot. […]"}, "[2]": {"system": "CHP-134 neuroblastoma cells", "experiment": "Flow cytometry binding to cells", "format": "cell-based, human", "method": "(§1) Cells (approximately 10^5 per well) were plated onto a flat bottom 96-well tissue culture plate (Nunc) and incubated with growth medium overnight before assay. Cells were detached from the plate by either trypsin (SK-MEL-28) or CDR (CHP-134) before being collected into a 96-round bottom plate, spun at 500 g for 5 minutes and fixed with ice-cold 1% (v/v) formaldehyde. After 20 minutes cells were pelleted by centrifugation (above) and incubated a blocking solution of 3% (v/v) goat serum with and without Triton X-100 (0.5% w/v) for 1 hour. After which the primary antibodies were added and incubated for 2 h or overnight at 4° C. The cells were washed twice by pelleting and resuspension in ice-cold PBS. Secondary antibody (Invitrogen, as described above) was incubated with the cells for at least 1 hour at 4° C. in the dark. After another series of spins and washes (3 times) binding was analyzed by a Guava EastCyte flow cytometer. Control samples were treated with an isotype matched irrelevant antibody (Southern Biotech), which were used to create baseline fluorescence, or positive control mAbs that are reactive with antigens specifically expressed by the cells (i.e. anti-GD3 for SK-MEL 28 cells and anti-NCAM in CHP-134 cells). In addition, specificity of binding was shown for the Jurkat cells by preincubating SEAM 3 with 50 μg/ml N-Pr NmB PS prior to adding the mAb to the cells."}, "[3]": {"system": "Jurkat T-cell leukemia cells", "experiment": "Flow cytometry binding to cells", "format": "cell-based, human", "method": "as §1"}, "SK-MEL 28 melanoma cells": {"system": "SK-MEL 28 melanoma cells", "experiment": "Flow cytometry binding to cells", "format": "cell-based, human", "method": "as §1"}, "SK-MEL 28 cells": {"system": "SK-MEL 28 cells", "experiment": "Flow cytometry double labeling of SEAM 3 binding and Ki-67 antigen", "format": "cell-based, human", "method": "Cells were processed by the same procedures used to measure SEAM 3 binding in the absence of Triton. After unbound SEAM 3 had been washed away, cells were treated with 3% (v/v) goat serum containing 0.5% Triton to allow entry of an anti-Ki-67 antibody. After 1 h at 4° C., an anti-Ki-67 was added and incubated on-ice for 2 hours. Cells were then collected by centrifugation, washed twice with PBS, and two fluorescently labeled goat anti-mouse secondary antibodies were added, anti IgG2b-Alexa Flour 594 (Invitrogen); anti-IgM-Alexa Flour 488 (Invitrogen). After extensive washing, cells were analyzed on a Guava EasyCyte flow cytometer."}},
  "data": [
    {"molecule": "SEAM 3: murine anti-N-Pr NmB polysaccharide monoclonal antibody (IgG2b), ATCC Deposit No. HB-12170 (antibody, V domains shown, mouse) VH: EVKLQESGGGLVQPGDSLSLSCAASGFTFTPYYMGWVRQPPGKALEWLGYIRNKANGYTTEYSASVKGRFTISRDNSQSILYLQMNALRAEDSATYYCARYARGTVDSWGQGTTLTVS VL: DIVMTQSPLTLSVTIGQPASISCKSSQSLLHSNGKTYLNWLLQRPGQSPKLLIYLVSKLESGVPDRFSGSGSGTDFTLKISRVEAEDLGLYYCLQIIHFPHTFGAGTKLELKRA", "values": [
      {"measurement": "reactivity with SK-MEL-28 lipid extract treated with NaBH4 (protecting group removed)", "setting": "[1]", "result": "reacts with a different slower moving de-N-acetyl ganglioside derivative"},
      {"measurement": "binding to internal antigen by flow cytometry", "setting": "[2]; +Triton X-100", "result": "larger amounts of internal SEAM 3-reactive antigen"},
      {"measurement": "binding to cell surface by flow cytometry", "setting": "[2]; −Triton", "result": "greatest amount of binding"},
      {"measurement": "binding to internal antigen by flow cytometry", "setting": "[3]; +Triton X-100", "result": "larger amounts of internal SEAM 3-reactive antigen"},
      {"measurement": "binding to cell surface by flow cytometry", "setting": "[3]; −Triton", "result": "least"},
      {"measurement": "binding to internal antigen by flow cytometry", "setting": "SK-MEL 28 melanoma cells; +Triton X-100", "result": "larger amounts of internal SEAM 3-reactive antigen"},
      {"measurement": "binding to cell surface by flow cytometry", "setting": "SK-MEL 28 melanoma cells; −Triton", "result": "binds to the surface of all three cell lines"},
      {"measurement": "cells expressing SEAM 3-reactive antigen on their surface", "setting": "SK-MEL 28 cells; cells in exponential growth phase, flow cytometry and fluorescence microscopy", "result": "approximately 20%"},
      {"measurement": "cells expressing both Ki-67 and SEAM 3-reactive antigen on their surface", "setting": "SK-MEL 28 cells; double labeling", "result": "approximately 11%"},
      {"measurement": "cells that only express SEAM 3-reactive antigen", "setting": "SK-MEL 28 cells; double labeling", "result": 13, "unit": "%"}
    ]}
  ]
}
